In assay [1] the target is C-terminally myc-tagged ClpP2 (ClpP2-2×myc) (L. monocytogenes (endogenous gene in L. monocytogenes EGD-e)). Nature of the assay: affinity purification with mass spectrometry.
For assay [2], the target named is ClpP2 co-expressed with ClpP1 in E. coli (L. monocytogenes). Kind of assay: SEC.
The target of assay [3] is Full-length ClpP2 with a C-terminal Strep-tag II (tetradecamer, ClpP2_(14)) (L. monocytogenes). Nature of the assay: SEC + other: intact protein mass spectrometry.
The target of assay [4] is ClpP1 co-expressed with ClpP2 in E. coli (L. monocytogenes). Nature of the assay: SEC.

In assay [1], “ClpP1, endogenous in L. monocytogenes (enzyme)” showed a fold enrichment at 42 °C against 20 °C of 6 fold. As to “ClpP2 co-expressed with ClpP1 in E. coli (enzyme)”, the stoichiometry N in assay [2] came out at 14. As to “ClpP1 with a C-terminal Strep-tag II (heptamer, ClpP1_(7)) (enzyme)”, the percent ClpP1 in the tetradecamer peak (intact protein MS) in assay [3] fell in the range of 47 to 49%. For “Full-length ClpP2 with a C-terminal Strep-tag II (tetradecamer, ClpP2_(14)) (enzyme)”, the stoichiometry N in assay [3] was 14. On to “ClpP1 co-expressed with ClpP2 in E. coli (enzyme)”, for which, in assay [4], the stoichiometry N stood at 7.
